Assay results published in the DeepSol protein solubility set.

Assay: soluble on expression in E. coli; label from the status in PepcDB or PDB records

Sequence | soluble on expression in E. coli
MAHHHHHHMEASAPGKVLILGSYLIVESCTPANVGISIGVNARFTTRIVKAEPTTTGASGKTTIHMRSPQFRQSFCFVANTSAPGTVAVKQTEGPGSPFIFNAVLYSVAAAQSLGSSTDGEIWVELLADNDFYSQRNYLESQGKDVNVANLRSLPPHLPLVGAISKTGLGSSAAMTTSIVACLCHHFNADGCSHEYVHRIAQIAHSVTQGKIGSGFDVYTAVYGTCAYRRFPVSRVSMMMMASAQPPSSVEVETLRRCVDMNEVWVPPESFRLPPGVKLVLGDVHQGGSCTPGMVAKIMAWRKSVADTPDNLWEQLRRNNEAYIAALRRMIDEAAAKPDVYAASMAALQQVPSLPLFRADGESMQCIVEASRFAARSRALLRDMGVAAEVKVEPVELTDLLDDTATLPGVFAVGCPGAGGYDAVFALVLGDECAAAVEAFWEHYTKMNVCPLLVREDPSGLLIQPPP | soluble
MEDIKSLLLQCPVLAGLPVEGINEAVQIVRARHFDEKALICSKGAQHSSLMVIAKGSVRVNSISSKGKEVTLMIFETGGWFGDNVFSPGMPRIFGATAHTDVTLLELPGDKFRQLLAKYPQSYPVILDLLSRRLWSAISVIEDDAIRGIEERIGRRLLLLAEYQHNRPISAQSCVVKVTREHIANMMGLTRQSVHKVLKKLENSNVLRLQYGSITILNPLKMEAYLKQLE | not soluble
MIVRFAGRRGVVSTCNLNGGYREDLRYAFNNSCGRDPDVIAKRSVGMRGKTMIEHYAALAEELGLPLDKTTGMGTAALIENTATSSRQYHGVTVMAVATAGIDVNGGRAGEPAAYNEFTQTDLIKPGTINVFLFIDASLDAGTLTRALVTATEAKSAALQELMANSMYSEDLATGSGTDSLIAICNKESEIVLQNSGKHVLLGEMIGQSVKEAITEALSRQTKMTPTRQASIEWQTKRYGITREAIVSECLRLYPHLKKEVVEAGIGGIDRDNRLVAAVAAIAHLCDQNRWQIISDKSMTCTAENILHTILSERGISEEANRKDIVCGQDAPAYRQVLSLCLHTLARILHNRIIHSSL | not soluble
MNELTGADFKSATADDNKKLFIETYGCQMNVADSEVIASVMQMAGYSVAETLEEADAVFMNTCSIRDNAEQKILNRLEFFHSLKKKKKALIVGVLGCMAERVKDDLITNHHVDLVVGPDAYLTLPELIAAVEAGEKAINVDLSTTETYRDVIPSRICGNHISGFVSIMRGCNNFCTYCIVPYTRGRERSRDVESILNEVADLVAKGYKEVTLLGQNVNSYRFEKPTGEVVTFPMLLRMVAEAAPGVRIRFTTSHPKDMSDETLEVIAQVPNVCKHIHLPVQSGSSRILKLMNRKYTREWYLDRVAAIKRIIPDCGLTTDIFSGFHSETEEDHQLSLSLMEECGYDAAFMFKYSERPGTYASKHLEDNVPEDVKVRRLNEIIALQNRLSAESNQRCIGKTYEVLVEGVSKRSRDQLFGRTEQNRVVVFDRGTHRIGDFVNVRVTEASSATLKGEEVLEHHHHHH | soluble
MGSDKIHHHHHHMEILSLGEKIKARRKELNMTLKDLAGDRITPGQISLVESGKSNPSMDLLEYLAGALNTSVEYLMESEETQAEKICVYYENTAEAYMLNDELMEAEQYLEKAMYYAENYKISYRKARTLYLYGCINMNKNELGVAQQFFLSSNVLFIKLNHYEDIINTFINLGKITLNLKAYNSSCSYFEQAERVSRDNDIGNDFLIGEIYYYMSLVYFKMNNSNKTIKYCLMAKEKFAELENKKEYARTLLILSKEYSKSGDVDNAIKYSKKALKAFKENDNMFAVADIENELGKLFYEFENIEESFIHLNKAKEIRKKTKGHEFIETLCNICENYIKLKDTENSQKVLNEIKENIDGNNVFDILKYYMLKYRISILNRSLKEAENILLRALQYAENMELEKEAAEFSVIIGKYYIDNGDDVEAAKYLNSGIEKFKKIGVLKDL | not soluble
MNAAVVRRTQEALGKVIRRPPLTEKLLSKPPFRYLHDIITEVIRMTGFMKGLYTDAEMKSDNVKDKDAKISFLQKAIDVVVMVSGEPLLAKPARIVAGHEPERTNELLQIIGKCCLNKLSSDDAVRRVLAGEK | soluble
MAHHHHHHMETTAEEISAMLNENEHALIGELQGKYDFINFNEMKNYKEKKLHHELTLEVQKFINNKNVQVKDKFRLFYTLLSPLMSKLKKTIYAELLYIVTANFDANWTISYLKESEKNLENDKDAIIIYRCILILKYIELGDFKSCENEIENTKNLLQGVIGLNVVAHKFYNFAIMKYYNVLNKSDLFVKYALLYLAYTPLNDLDEADKIEIGTHICMHSIISEDVYNIGEIIQLPLINVCLKNNEQTNWLYQLIYIYNEGNIEVFNQVVHKYEENIKNSLLKDYKKNMIKKITLLALMDLAFKKKKQRSDISFEEIAQHCKVDVNEVEKMLITAKSKNILTCQIDEIQKSVKITWVKPRVLNNEKIFFMKESIDKWITHSKNLLTYMEDLSVELLIS | not soluble
MGSDKIHHHHHHMTENKNEKLGWINGHWGVFKDLKVPINDRGLNFADGIFETILILNGIPQLLDEHLNRWEKSASILEMNSPPSKEWLISLVEDGINQAQLKNINGVIRINWTRGESEQRGIDISKTSLHSFWLEIDSYQPNFESISTIISQTERRNSFSRLSSCKTFSYNQGIQARIEAKNLGFNDALLLNSQGEICCATTANILVKRENNWLTPPSNSGCLPGIMRQRGIELNIIKEALIEATPKDNDEWFLINSLSCRPIQKINKKELKISTNPKEFWLSLLKI | not soluble
MSLGTVTITEMDCVDGVHRIGVATLDNTPSLNALTFDMLLQLHDQLIKWQHDPHVVCVVLSGAGEKAFCAGGDVRAMYHVMHNESKEATVEFCTKYFALEYECDYLIHTYNKPIIGWGEGIVMGGGMGLFMGTSHKVVTPISRLAMPEINIGLYPDVGGTWFLSQIDPEVGLFLGLTGALVNSSDAVTTGLADWLLLEEQYPTLLKELQKVPWGTSGAKELVSALLALLEEQIIDSKPTTQICPHLEQIKEACKGVDLNLIAQRIMAMEDSSPWIAGAKETFSSGSPITAHICFRQVKEYHRLPLADCFRLELSLSVRCALLGEFEEGVRARLIDRDGEPNWMFKTVSEVDEDVIDLLFTSLWADAEHPLAKLGEGHHHHHH | soluble
MEPLSHRGLPRLSWIDTLYSNFSYGTDEYDGEGNEEQKGPPEGSETMPYIDESPTMSPQLSARSQGGGDGVSPTPPEGLAPGVEAGKGLEMRKLVLSGFLASEEIYINQLEALLLPMKPLKATATTSQPVLTIQQIETIFYKIQDIYEIHKEFYDNLCPKVQQWDSQVTMGHLFQKLASQLGVYKAFVDNYKVALETAEKCSQSNNQFQKISEELKVKGPKDSKDSHTSVTMEALLYKPIDRVTRSTLVLHDLLKHTPVDHPDYPLLQDALRISQNFLSSINEDIDPRRTAVTTPKGETRQLVKDGFLVEVSESSRKLRHVFLFTDVLLCAKLKKTSAGKHQQYDCKWYIPLADLVFPSPEESEASPQVHPFPDHELEDMKMKISALKSEIQKEKANKGQSRAIERLKKKMFENEFLLLLNSPTIPFRIHNRNGKSYLFLLSSDYERSEWREAIQKLQKKDLQAFVLSSVELQVLTGSCFKLRTVHNIPVTSNKDDDESPGLYGFLHVIVHSAKGFKQSANLYCTLEVDSFGYFVSKAKTRVFRDTAEPKWDEEFEIELEGSQSLRILCYEKCYDKTKVNKDNNEIVDKIMGKGQIQLDPQTVETKNWHTDVIEMNGIKVEFSMKFTSRDMSLKRTPSKKQTGVFGVKISVVTKRERSKVPYIVRQCVEEVEKRGIEEVGIYRISGVATDIQALKAVFDANNKDILLMLSDMDINAIAGTLKLYFRELPEPLLTDRLYPAFMEGIALSDPAAKENCMMHLLRSLPDPNLITFLFLLEHLKRVAEKEPINKMSLHNLATVFGPTLLRPSEVESKAHLTSAADIWSHDVMAQVQVLLYYLQHPPISFAELKRNTLYFSTDV | soluble
MAGGDDLKLLGAWPSPFVTRVKLALALKGLSYEDVEEDLYKKSELLLKSNPVHKKIPVLIHNGAPVCESMIILQYIDEVFASTGPSLLPADPYERAIARFWVAYVDDKLVAPWRQWLRGKTEEEKSEGKKQAFAAVGVLEGALRECSKGGGFFGGDGVGLVDVALGGVLSWMKVTEALSGDKIFDAAKTPLLAAWVERFIELDAAKAALPDVGRLLEFAKAREAAAAASK | soluble
MSEDDPRPLHIRRQGLDPADELLAAGALTRVTIGSGADAETHWMATAHAVVRQVMGDHQQFSTRRRWDPRDEIGGKGIFRPRELVGNLMDYDPPEHTRLRRKLTPGFTLRKMQRMAPYIEQIVNDRLDEMERAGSPADLIAFVADKVPGAVLCELVGVPRDDRDMFMKLCHGHLDASLSQKRRAALGDKFSRYLLAMIARERKEPGEGMIGAVVAEYGDDATDEELRGFCVQVMLAGDDNISGMIGLGVLAMLRHPEQIDAFRGDEQSAQRAVDELIRYLTVPYSPTPRIAREDLTLAGQEIKKGDSVICSLPAANRDPALAPDVDRLDVTREPIPHVAFGHGVHHCLGAALARLELRTVFTELWRRFPALRLADPAQDTEFRLTTPAYGLTELMVAW | soluble
MSTTGRIHSFESCGTVDGPGIRFIVFLQGCLMRCKYCHNRDTWDTHDGKEVTVEEIIAEAKSYRHFMNASGGGITCSGGEAMLQPEFVRDFFRAAHAEGIHTCLDTNGYIRKHTEVIDEVLDATDLVMLDIKHMKDEIHQDFIGVSNRRTLDFARYLHKIGQKTWIRYVVVPGYTDDPEAAHMLGEFIKDMDNIEKVELLPYHKLGAHKWEALGLEYPLEGVNPPSKETMDEIQSILSQYHSNVKYLEHHHHHH | not soluble
MSLIYSSENDYSILEDKTATGKKRDWKGKKRRTNLMAEHYEALESKIGAPYYGKKAEKLISCAEYLSFKRDPETGKLKLYQAHFCKVRLCPMCAWRRSLKIAYHNKLIVEEANRQYGCGWIFLTLTIRNVKGERLKPQISAMMEGFRKLFQYKKVKTSVLGFFRALEITKNHEEDTYHPHFHVLIPVRKNYFGKNYIKQAEWTSLWKKAMKLDYTPIVDIRRVKGKAKIDAEQIENDVRNAMMEQKAVLEISKYPVKDTDVVRGNKVTEDNLNTVLYLDDALAARRLIGYGGILKEIHKELNLGDAEDGDLVKIEEEDDEVANGAFEVMAYWHPGIKNYIIKEGHHHHHH | soluble
MGSDKIHHHHHHMRVKYPSIPHLPWSPGLQNDDRRITSLSGFIGKEVVVTEKLDGENTSLYRDDLHARSLDMRPHPSRTWVKAERGRVAHDIPLGWRFCGENVYAVHSLKYDDLDGYFYLFSVWDDLNVSRPWDEVRGWAERLSLPTPRELYRGPWDEAALQALDPDPERMEGYVVRVTAAIPYADFGRKVAKWVRRGHVQTDQHWLSQPVEPNGLKRQEQS | not soluble
MSLKYLVIGSNSFTGASMVSYLLDQGADVVGISRSDEPHPAFLPYRWKKADRFRFQKLDLNHDLDAIMQLVTAERFPCIINFAAQSMVGESWANPDHWFMTNVVSTVRLHERLRICDFLERYVHVTTPEVYGNATGTLTEDAVFDPSTPYAVSRAAGDMSLRSYFRAYGFPVLFTRAANVYGPGQRLYRIVPRTILFIKLGRKLQLHGGGTSERSFIHAADVADATRRIACNGKLGDSYHISTDRIVTIRALVEMICAMMRVRFEDQVEIVGERLGKDAAYKLDSSKLRSELGWSDQITLEQGIEQTIAWIDRWFEELKSQPFDYAHKEGHHHHHH | not soluble
NVLPSELPAGVDWRSRGCVTPVKDQRDCGSCWAFSTTGALEGAHCAKTGKLVSLSEQELMDCSRAEGNQSCSGGEMNDAFQYVLDSGGICSEDAYPYLARDEECRAQSCEKVVKILGFKDVPRRSEAAMKAALAKSPVSIAIEADQMPFQFYHEGVFDASCGTDLDHGVLLVGYGTDKESKKDFWIMKNSWGTGWGRDGYMYMAMHKGEEGQCGLLLDASFPVM | soluble
MSCYIYWDKIKRIASRLEGMNYHFDEMDTSGVMPLLDEIEEIAHDSTIDFESAKHILDDAEMNHALSLIRKFYVNLGMKLQMEKAQEVIESDSPWETLRSFYFYPRYLELLKNEAALGRFRRGERAVFIGGGPLPLTGILLSHVYGMRVNVVEIEPDIAELSRKVIEGLGVDGVNVITGDETVIDGLEFDVLMVAALAEPKRRVFRNIHRYVDTETRIIYRTYTGMRAILYAPVSDDDITGFRRAGVVLPSGKVNNTSVLVFKCPDKGELNSKLEGKPIPNPLLGLDSTRTGHHHHHH | soluble
